The values below are quoted from earlier work in publication PMC7866529.

As a reminder, the Kd is the constant that tells how readily two partners part at equilibrium.

Read-outs that look alike come from different tables or passages of the source.

For data set [1], the target named is S100B (Homo sapiens) (UniProt P04271).
Data set [2] shares this target. This is another data set of the same source.

With S100B (from UniProt P04271), the Kd with S100B (Homo sapiens) [1] was less than 0.5 nM.

In the case of TRTK12, the Kd with S100B (Homo sapiens) [2] was 260 nM.
